Data from article PMC4339810 (Scientific Reports, 2015).

T1: HMGA2 (UniProt P52926 1-109)
T1 sequence: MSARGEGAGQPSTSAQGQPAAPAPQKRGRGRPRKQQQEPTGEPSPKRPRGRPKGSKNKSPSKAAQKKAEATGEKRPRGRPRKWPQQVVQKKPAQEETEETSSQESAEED

B1: HCRII (dsDNA)
DNA 1: GACACATTAATCTATAATCAAATA
DNA 2: TATTTGATTATAGATTAATGTGTC
B2: GST-NPM1 117-186 (domain or fragment, UniProt P06748 117-186, looked up)
chain: VAVEEDAESEDEEEEDVKLLSISGKRSAPGGGSKVPQKKVKLAADEDDDDDDEEDDDEDDDDDDFDDEEA
notes: also called central portion of NPM1 containing the two acidic clusters (A2 and A3)
B3: recombinant HMGA1b (natural protein, UniProt P17096-2 1-96, looked up)
chain: MSESSSKSSQPLASKQEKDGTEKRGRGRPRKQPPKEPSEVPTPKRPRGRPKGSKNKGAAKTRKTTTTPGRKPRGRPKKLEKEEEEGISQESSEEEQ
notes: HMGA1b, isoform of HMGA1 from alternative splicing
B4: E3 (dsDNA)
DNA 1: AGAAAAACTCCATCTAAAAAAAAAAAAAAAAAAAAAAAAAAACA
DNA 2: TGTTTTTTTTTTTTTTTTTTTTTTTTTTTAGATGGAGTTTTTCT
B5: recombinant HMGA1a (natural protein, UniProt P17096-1 1-107, looked up)
chain: MSESSSKSSQPLASKQEKDGTEKRGRGRPRKQPPVSPGTALVGSQKEPSEVPTPKRPRGRPKGSKNKGAAKTRKTTTTPGRKPRGRPKKLEKEEEEGISQESSEEEQ
notes: HMGA1a, isoform of HMGA1 from alternative splicing

Columns and labels:
HMGA2 = target: T1, HMGA2; assay: EMSA; no NPM1; EMSA: 4 pmol HMGA preincubated 10 min at 4°C with GST-NPM1/GST in 25 mM Tris/HCl pH 8, 5 mM GSH (8 uL); then 0.1 pmol DNA for 10 min in 180 mM NaCl, 1 mM MgCl2
HMGA1a [1] = target: T2, HMGA1a (UniProt P17096 1-107); assay: as above
recombinant HMGA1a = target: B5; assay: pull-down; GST-fused NPM1 forms as bait with recombinant HMGA proteins; bound proteins seen by western blot with anti-HMGA1 and anti-HMGA2 antibodies; settings: both partners purified
recombinant HMGA1b = target: B3; assay: as above; settings: both partners purified
[2] = target: T3, GST-NPM1 1-295 (full length) (UniProt P06748 1-294); assay: as above; settings: both partners purified
T3 construct: nucleophosmin (NPM1), printed as full length (1-295); Plasmid provided by P.G. Pelicci; pGEX 4T3 GST-NPM1 1-295 is named as the PCR template; also called full-length GST-NPM1; GST-fused NPM1 full length (1-295); source: for EMSA eluted from Glutathione Sepharose 4B

GST-NPM1 1-259 = target: T4, GST-NPM1 1-259 (UniProt P06748 1-259); assay: as above; settings: both partners purified
T4 construct: nucleophosmin (NPM1), residues 1-259; Plasmid provided by P.G. Pelicci

GST-NPM1 1-186 = target: T5, GST-NPM1 1-186 (UniProt P06748 1-186); assay: as above; settings: both partners purified
T5 construct: Plasmid provided by P.G. Pelicci

HMGA1a [3] = target: T2, HMGA1a; assay: EMSA; no NPM1; two complexes; EMSA: 4 pmol HMGA preincubated 10 min at 4°C with GST-NPM1/GST in 25 mM Tris/HCl pH 8, 5 mM GSH (8 uL); then 0.1 pmol DNA for 10 min in 180 mM NaCl, 1 mM MgCl2

T4 sequence (P06748 1-259): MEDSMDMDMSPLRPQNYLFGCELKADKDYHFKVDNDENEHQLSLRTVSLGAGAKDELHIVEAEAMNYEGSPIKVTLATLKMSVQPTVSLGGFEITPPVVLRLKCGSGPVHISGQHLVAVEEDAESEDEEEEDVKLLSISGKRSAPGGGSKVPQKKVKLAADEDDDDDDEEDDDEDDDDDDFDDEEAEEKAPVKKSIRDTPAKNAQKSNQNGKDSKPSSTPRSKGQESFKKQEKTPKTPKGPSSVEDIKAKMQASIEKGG
T3 sequence (P06748 whole entry, the tested form may be a part): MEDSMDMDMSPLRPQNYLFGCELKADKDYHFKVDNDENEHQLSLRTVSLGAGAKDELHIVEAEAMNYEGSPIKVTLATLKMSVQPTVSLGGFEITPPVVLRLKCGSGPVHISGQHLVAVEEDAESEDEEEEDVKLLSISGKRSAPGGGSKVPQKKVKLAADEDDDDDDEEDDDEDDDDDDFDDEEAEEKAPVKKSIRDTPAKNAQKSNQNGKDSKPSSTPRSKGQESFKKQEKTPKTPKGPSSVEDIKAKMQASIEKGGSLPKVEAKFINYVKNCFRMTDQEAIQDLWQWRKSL

B1: binds (HMGA2); binds (HMGA1a [1]).

B2: binds (recombinant HMGA1a); binds (recombinant HMGA1b).

B3: binds [2]; binds (GST-NPM1 1-259); binds (GST-NPM1 1-186).

B4: binds (HMGA1a [3]).

B5: binds [2]; binds (GST-NPM1 1-259); binds (GST-NPM1 1-186).
